Target: the molecule itself
Assay: non-reducing SDS-PAGE (intersubunit disulfide bond assay); purified StrepII-tagged protein dialysed overnight in 100 mM Tris-Cl pH 7.5, 2 M NaCl; no reducing reagent; diluted 1:1 in SDS-loading buffer, boiled 10 min, 16% SDS-PAGE, Coomassie stain; shows only covalently (disulfide) linked subunits

B1: OxsR (HVO_2970) wild type with a C-terminal StrepII tag (natural protein, Haloferax volcanii, UniProt D4GY41 1-123, looked up)
chain: MADAPDMGELMETEDPNFGQVLACVFGIQSHESRTYLALLDNPGSTVAELAEVLDRDRSNVNRSLTTLLDKGLTERKRRLLDPGGYVYQYTATPLPEAKEMMHAALDEWAEDVHARIDAFGES
notes: 123 aa, 14 kDa; UniProtKB D4GY41; also called OxsR-StrepII; OxsR wt; source: H. volcanii SH125 (H26 ΔoxsR) carrying pJAM4019, purified (Strep-Tactin Superflow Plus resin, 2 M NaCl buffers); not shown: StrepII, C-terminal, kept
- binding result: binds

From article PMC9426492, “TrmB Family Transcription Factor as a Thiol-Based Regulator of Oxidative Stress Response” (mBio, 2022)
